Measurements from patent US20230192818A1 (TWIST BIOSCIENCE, published 2023).
Like-named read-outs stand apart in the source and are kept apart here.

Columns and labels:
[1] = target: T1, Antibody 178-08_His 501.V2 (27079) (SARS-CoV-2, UniProt P0DTC2 16-685); experiment: SPR (Carterra)
[2] = target: T1, Antibody 178-08_His 501.V2 (27079); experiment: SPR (Carterra); remark: listed apart in the source

B1: 3-31 (Fc fusion)
chain: EVQLVESGGGLVQPGGSLRLSCAASGSTFSINAMGWFRQAPGKEREFVAGITSSGGYTNYADSVKGRFTISADNSKNTAYLQMNSLKPEDTAVYYCAADGVPEYSDYASGPVWGQGTLVTVSS
notes: also called Antibody 3-31
Kd [1]: 96.7 µM | Kd [2]: 96.7 µM
